Experimental data reported in PMC2447227, “The Interaction Between Endopolygalacturonase From Fusarium Moniliforme and PGIP from Phaseolus Vulgaris Studied by Surface Plasmon Resonance and Mass Spectrometry” (Comparative and Functional Genomics, 2001).

Columns and labels:
[1] = biological target: T1, endopolygalacturonase from Fusarium moniliforme deglycosylated with endo-H (Fusarium moniliforme, UniProt Q07181 25-373, a single GlcNAc residue at each of the four N-glycosylation sites (observed mass 37110 Da against 36198 Da calculated for the polypeptide)); assay: SPR; PGIP-2 immobilised by amine coupling on a CM5 chip (4000-5000 RU), BIACORE X; PG solutions in 25 mM ammonium acetate buffer pH 5.0 injected at 5 ul/min; buffer-treated reference flow-cell; bound deglycosylated enzyme eluted with NH4HCO3 pH 8 and analysed by MALDI-TOF MS; details: both partners purified
T1 construct: endopolygalacturonase (PG), Fusarium moniliforme; the same polypeptide as m2, glycans trimmed by endo-H; calculated mass of the polypeptide 36198 Da; also called PG + EndoH; deglycosylated FmPG; source: expressed in Saccharomyces cerevisiae, purified, deglycosylated with endo-H
T1 sequence: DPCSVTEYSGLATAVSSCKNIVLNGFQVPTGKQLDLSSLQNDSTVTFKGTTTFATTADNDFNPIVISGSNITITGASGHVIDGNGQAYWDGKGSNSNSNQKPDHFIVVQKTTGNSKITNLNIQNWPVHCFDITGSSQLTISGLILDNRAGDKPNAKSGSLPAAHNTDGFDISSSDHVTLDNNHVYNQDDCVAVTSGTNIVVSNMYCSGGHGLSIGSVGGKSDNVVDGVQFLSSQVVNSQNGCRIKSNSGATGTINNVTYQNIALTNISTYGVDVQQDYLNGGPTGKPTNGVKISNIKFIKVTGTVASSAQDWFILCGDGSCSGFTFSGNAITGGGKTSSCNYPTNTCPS

[2] = biological target: T2, endopolygalacturonase from Fusarium moniliforme, native (glycosylated) enzyme expressed in Saccharomyces … (Fusarium moniliforme, UniProt Q07181 25-373, N-linked high-mannose type glycans (up to 14 Man residues in the chain at Asn65); four potential N-glycosylation sites; glycoforms of 43, 46 and 50 kDa); assay: as above; details: both partners purified
T2 construct: endopolygalacturonase (PG), Fusarium moniliforme; calculated mass of the polypeptide 36198 Da (36.2 kDa); also called FmPG; PG; source: expressed in Saccharomyces cerevisiae, purified
T2 sequence: T1 sequence

B1: polygalacturonase-inhibiting protein PGIP-2 of Phaseolus vulgaris (natural protein, UniProt P58822 30-342, looked up)
chain: ELCNPQDKQALLQIKKDLGNPTTLSSWLPTTDCCNRTWLGVLCDTDTQTYRVNNLDLSGLNLPKPYPIPSSLANLPYLNFLYIGGINNLVGPIPPAIAKLTQLHYLYITHTNVSGAIPDFLSQIKTLVTLDFSYNALSGTLPPSISSLPNLVGITFDGNRISGAIPDSYGSFSKLFTSMTISRNRLTGKIPPTFANLNLAFVDLSRNMLEGDASVLFGSDKNTQKIHLAKNSLAFDLGKVGLSKNLNGLDLRNNRIYGTLPQGLTQLKFLHSLNVSFNNLCGEIPQGGNLQRFDVSAYANNKCLCGSPLPACT
notes: a leucine-rich repeat protein; also called bean PGIP-2; source: Nicotiana benthamiana plants infected with PVX, purified
B1: binds [1]; binds [2].
